± gives the uncertainty stated by the source.
Experiment: self-splicing fitness, log relative to wild type (ln ratio); higher = more splicing; Tetrahymena group I intron in knt gene, E. coli kanamycin selection, DiMSum; sequences stand for … in CUCUCU…GGAGGGAAAAGUUAUCAGGCAUGCACCUGGUAGCUAGUCUUUAAACCAAUAGAUUGCAUCGGUUUAAAAGGCAAGACCGUCAAAUUGCGGGAAAGGGGUCAACAGCCGUUCAGUACCAAGUCUCAGGGGAAACUUUGAGAUGGCCUUGCAAAGGGUAUGGUAAUAAGCUGACGGACAUGGUCCUAACCACGCAGCCAAGUCCUAAGUCAACAGAUCUUCUGUUGAUAUGGAUGCAGUUCACAGACUAAAUGUCGGUCGGGGAAGAUGUAUUCUUCUCAUAAGAUAUAGUCGGACCUCUCCUUAAUGGGAGCUAGCGGAUGAAGUGAUGCAACACUGGAGCCGCUGGGAACUAAUUUGUAUGCGAAAGUAUAUUGAUUAGUUUUGGAGUACUCGUGGUCG
Method in brief: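 Fitness was computed with DiMSum as the error-weighted combination of replicate fold changes, kanamycin versus none, each normalised to wild type. The library randomised all eight intron nucleotides of the P1ex region, with the intron placed in the knt kanamycin-resistance gene on pET-22b(+) in E. coli BL21(DE3). Six replicate transformations were grown overnight at 37°C or 30°C on LB agar with or without 25 μg/mL kanamycin, plus 100 μg/mL carbenicillin, 50 μM IPTG and 0.2% rhamnose. Pooled colonies were amplicon-sequenced on an Illumina HiSeq 2500.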

Sequence | self-splicing fitness (ln) (30 °C) | self-splicing fitness (ln) (37 °C)
UAACAGCAAUAUUACGGCAU | -1.85 ± 0.093 | 0.0326 ± 0.093
UAACAGCAAUAUUACGGCGC | -2.5 ± 0.13 | -1.44 ± 0.13
UAACAGCAAUAUUACGGGAC | -4.36 ± 0.17 | -1.89 ± 0.13
UAACAGCAAUAUUACGGGAU | -3.08 ± 0.15 | -2.43 ± 0.16
UAACAGCAAUAUUACGGGCG | -0.476 ± 0.064 | 0.217 ± 0.087
UAACAGCAAUAUUACGGGGC | -3.63 ± 0.19 | -2.86 ± 0.24
UAACAGCAAUAUUACGGUGG | -1.67 ± 0.067 | -1.06 ± 0.084
UAACAGCAAUAUUACGUACG | -0.675 ± 0.047 | -0.193 ± 0.069
UAACAGCAAUAUUACGUAGA | -2.81 ± 0.071 | -1.37 ± 0.086
UAACAGCAAUAUUACGUCAG | -1.53 ± 0.073 | -0.0779 ± 0.085
UAACAGCAAUAUUACGUCCC | -2.98 ± 0.34 | -1.38 ± 0.27
UAACAGCAAUAUUACGUGUC | -4.05 ± 0.14 | -2.35 ± 0.13
UAACAGCAAUAUUACGUGUG | -1.23 ± 0.042 | -0.692 ± 0.055
UAACAGCAAUAUUACGUGUU | -3.78 ± 0.14 | -2.34 ± 0.12
UAACAGCAAUAUUACGUUAU | -3.22 ± 0.16 | -2.96 ± 0.23
UAAGAGCAAUAUUACGAAAG | -3.88 ± 0.31 | -1.92 ± 0.23
UAAGAGCAAUAUUACGACCC | -2.18 ± 0.37 | 
UAAGAGCAAUAUUACGACCG | -2.9 ± 0.35 | -2.21 ± 0.25
UAAGAGCAAUAUUACGACCU | -1.34 ± 0.23 | 
UAAGAGCAAUAUUACGACGC | -2.96 ± 0.32 | -2.07 ± 0.43
UAAGAGCAAUAUUACGACUA | -0.436 ± 0.11 | 0.314 ± 0.11
UAAGAGCAAUAUUACGAUGC | -3.73 ± 0.42 | -2.34 ± 0.33
UAAGAGCAAUAUUACGCAAA | -2.38 ± 0.21 | -2.44 ± 0.21
UAAGAGCAAUAUUACGCACG | -2.42 ± 0.15 | -1.84 ± 0.15
UAAGAGCAAUAUUACGCAGU |  | -2.38 ± 0.28
UAAGAGCAAUAUUACGCCUA | -2.03 ± 0.15 | -1.41 ± 0.12
UAAGAGCAAUAUUACGCGUG | -2.33 ± 0.13 | -1.88 ± 0.13

Sequence | self-splicing fitness (ln) (30 °C) | self-splicing fitness (ln) (37 °C)
UAAGAGCAAUAUUACGCUAA |  | -1.77 ± 0.27
UAAGAGCAAUAUUACGCUUC | -3.71 ± 0.25 | -2.46 ± 0.25
UAAGAGCAAUAUUACGGAAG | -2.8 ± 0.41 | 
UAAGAGCAAUAUUACGGCCA | -1.81 ± 0.3 | -1.48 ± 0.37
UAAGAGCAAUAUUACGGCGC | -2.68 ± 0.32 | -2.01 ± 0.41
UAAGAGCAAUAUUACGGCUG | -1.55 ± 0.12 | -0.424 ± 0.18
UAAGAGCAAUAUUACGGUGG | -4.17 ± 0.33 | -2.36 ± 0.26
UAAGAGCAAUAUUACGGUGU | -2.19 ± 0.14 | -3.27 ± 0.47
UAAGAGCAAUAUUACGGUUC | -2.19 ± 0.21 | -2.14 ± 0.46
UAAGAGCAAUAUUACGUAUG | -5.26 ± 0.45 | -2.47 ± 0.34
UAAGAGCAAUAUUACGUCAU | -2.21 ± 0.14 | -2.22 ± 0.24
UAAGAGCAAUAUUACGUCUA | -0.273 ± 0.093 | -0.548 ± 0.1
UAAGAGCAAUAUUACGUUAU | -3.21 ± 0.44 | 
UAAUAGCAAUAUUACGAACC | -3.22 ± 0.49 | -2.27 ± 0.39
UAAUAGCAAUAUUACGAAUU |  | -2.58 ± 0.24
UAAUAGCAAUAUUACGACGC | -2.84 ± 0.34 | 
UAAUAGCAAUAUUACGAUUU | -2 ± 0.11 | -1.13 ± 0.11
UAAUAGCAAUAUUACGCCAU | -2.36 ± 0.22 | -1.55 ± 0.23
UAAUAGCAAUAUUACGCCUG | -0.203 ± 0.13 | -0.254 ± 0.16
UAAUAGCAAUAUUACGCCUU | -3.48 ± 0.21 | -1 ± 0.14
UAAUAGCAAUAUUACGCGAC | -3.42 ± 0.35 | -1.61 ± 0.34
UAAUAGCAAUAUUACGCUCG | 0.447 ± 0.16 | 0.265 ± 0.18
UAAUAGCAAUAUUACGGCAU | -3.26 ± 0.18 | -2.28 ± 0.23
UAAUAGCAAUAUUACGGGCG | -1.45 ± 0.1 | -0.567 ± 0.13
UAAUAGCAAUAUUACGUAGC | -2.63 ± 0.35 | -2.19 ± 0.26
UAAUAGCAAUAUUACGUCGC | -3.86 ± 0.43 | -1.71 ± 0.35
UAAUAGCAAUAUUACGUGAC | -3.71 ± 0.22 | -2.78 ± 0.22

Sequence | self-splicing fitness (ln) (30 °C) | self-splicing fitness (ln) (37 °C)
UAAUAGCAAUAUUACGUGAG | -1.76 ± 0.088 | -1.47 ± 0.12
UAAUAGCAAUAUUACGUGUC | -3.02 ± 0.23 | -2.44 ± 0.3
UAAUAGCAAUAUUACGUUGG | -3.11 ± 0.13 | -0.991 ± 0.11
UACAAGCAAUAUUACGAAAG | -2.61 ± 0.11 | -2.37 ± 0.16
UACAAGCAAUAUUACGAAGU | -4.09 ± 0.42 | -1.97 ± 0.24
UACAAGCAAUAUUACGACCC | -2.31 ± 0.46 | 
UACAAGCAAUAUUACGACGA | -0.323 ± 0.065 | 0.0319 ± 0.075
UACAAGCAAUAUUACGACUA | -0.188 ± 0.062 | 0.316 ± 0.083
UACAAGCAAUAUUACGAGAU | -3.65 ± 0.28 | -3.07 ± 0.28
UACAAGCAAUAUUACGCACG | -1.29 ± 0.094 | 0.0257 ± 0.1
UACAAGCAAUAUUACGCCCA | 0.292 ± 0.11 | 0.261 ± 0.13
UACAAGCAAUAUUACGCGGU | -3.61 ± 0.16 | -2.61 ± 0.18
UACAAGCAAUAUUACGCUGC | -2.03 ± 0.19 | -0.919 ± 0.32
UACAAGCAAUAUUACGCUGU |  | -1.65 ± 0.28
UACAAGCAAUAUUACGCUUA | -2.33 ± 0.11 | -1.18 ± 0.08
UACAAGCAAUAUUACGCUUC | -4.25 ± 0.42 | -3.02 ± 0.25
UACAAGCAAUAUUACGGAUA | -1.38 ± 0.086 | -0.839 ± 0.092
UACAAGCAAUAUUACGGCUA | -0.336 ± 0.06 | 0.201 ± 0.088
UACAAGCAAUAUUACGGCUG | -0.22 ± 0.1 | 0.307 ± 0.16
UACAAGCAAUAUUACGGUGG | -1.65 ± 0.051 | -1.25 ± 0.064
UACAAGCAAUAUUACGUACA | -1.56 ± 0.084 | -0.15 ± 0.086
UACAAGCAAUAUUACGUACG | -3.9 ± 0.22 | -1.3 ± 0.13
UACAAGCAAUAUUACGUGCA | -0.352 ± 0.083 | -0.366 ± 0.1
UACAAGCAAUAUUACGUGCG | -1.05 ± 0.054 | -0.158 ± 0.075
UACAAGCAAUAUUACGUGCU | -3.34 ± 0.16 | -2.22 ± 0.13
